Data reported in paper PMC3973309.
Where a chain is given by its changes, count along the chain named.

B1: 16SP (dsDNA)
DNA 1: AGCGTAGCACTGGGCT
DNA 2: AGCCCAGTGCTACGCT
B2: 12/12 (dsDNA)
DNA 1: AGCACTGGGTCG
DNA 2: CGACCCAGTGCT

Key:
BfiI W229A = target: T1, BfiI W229A (UniProt Q9F4C9 1-358, W229A); assay: EMSA
T1 sequence: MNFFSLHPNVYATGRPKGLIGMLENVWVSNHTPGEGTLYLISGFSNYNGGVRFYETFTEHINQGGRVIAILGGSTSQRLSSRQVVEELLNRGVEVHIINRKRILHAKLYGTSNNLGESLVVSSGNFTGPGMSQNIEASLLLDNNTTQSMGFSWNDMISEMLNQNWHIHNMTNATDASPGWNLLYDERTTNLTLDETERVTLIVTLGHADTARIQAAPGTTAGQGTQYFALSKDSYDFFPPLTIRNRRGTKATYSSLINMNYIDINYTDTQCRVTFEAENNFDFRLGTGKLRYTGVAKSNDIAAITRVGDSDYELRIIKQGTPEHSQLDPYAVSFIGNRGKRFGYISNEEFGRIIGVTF

BfiI R291A = target: T2, BfiI R291A (UniProt Q9F4C9 1-358, R291A); assay: EMSA
T2 sequence: T1 sequence with A229W, R291A

BfiI Y227A = target: T3, BfiI Y227A (UniProt Q9F4C9 1-358, Y227A); assay: EMSA
T3 sequence: T1 sequence with Y227A, A229W

BfiI E276A = target: T4, BfiI E276A (UniProt Q9F4C9 1-358, E276A); assay: EMSA
T4 sequence: T1 sequence with A229W, E276A

BfiI R212A = target: T5, BfiI R212A (UniProt Q9F4C9 1-358, R212A); assay: EMSA
T5 sequence: T1 sequence with R212A, A229W

BfiI T225A = target: T6, BfiI T225A (UniProt Q9F4C9 1-358, T225A); assay: EMSA
T6 sequence: T1 sequence with T225A, A229W

BfiI R272A = target: T7, BfiI R272A (UniProt Q9F4C9 1-358, R272A); assay: EMSA
T7 sequence: T1 sequence with A229W, R272A

BfiI Q223A = target: T8, BfiI Q223A (UniProt Q9F4C9 1-358, Q223A); assay: EMSA
T8 sequence: T1 sequence with Q223A, A229W

BfiI N245A = target: T9, BfiI N245A (UniProt Q9F4C9 1-358, N245A); assay: EMSA
T9 sequence: T1 sequence with A229W, N245A

BfiI K250A = target: T10, BfiI K250A (UniProt Q9F4C9 1-358, K250A); assay: EMSA
T10 sequence: T1 sequence with A229W, K250A

BfiI Q226A = target: T11, BfiI Q226A (UniProt Q9F4C9 1-358, Q226A); assay: EMSA
T11 sequence: T1 sequence with Q226A, A229W

[1] = target: T12, BfiI-C (C-terminal DNA-binding domain) (UniProt Q9F4C9 193-358); assay: X-ray crystallography
T12 sequence: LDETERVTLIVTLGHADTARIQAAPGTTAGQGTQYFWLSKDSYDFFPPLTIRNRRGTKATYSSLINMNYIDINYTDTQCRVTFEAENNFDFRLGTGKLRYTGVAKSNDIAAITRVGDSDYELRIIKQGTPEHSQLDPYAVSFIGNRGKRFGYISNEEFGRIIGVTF

Binder	binding signal (BfiI W229A)	binding signal (BfiI R291A)	binding signal (BfiI Y227A)	binding signal (BfiI E276A)	binding signal (BfiI R212A)	binding signal (BfiI T225A)	binding signal (BfiI R272A)	binding signal (BfiI Q223A)	binding signal (BfiI N245A)	binding signal (BfiI K250A)	binding signal (BfiI Q226A)	binding result [1]
B1	1 % of WT KA	2 % of WT KA	5 % of WT KA	10 % of WT KA	2 % of WT KA	10 % of WT KA	1 % of WT KA	100 % of WT KA	100 % of WT KA	2 % of WT KA	50 % of WT KA	
B2												binds
